{"source": "patent US12686712B2", "about": "“Antibody, related use, pharmaceutical composition including method for diagnosing fungal infections, fungal infection diagnosis kit and method for treating fungal infections” (priority 2020, dated 2026)", "key": {"C. albicans [1]": {"tested_on": "C. albicans", "assay": "Dot Blot against intact cells using PL", "format": "binding, Candida albicans", "settings": "AcM 25 μg/ml; cells in 5 μg/ml PL diluted in base 10 from 10^7 cell/ml; 3 independent experiments", "experimental": "(§1) C. neoformans (H99) and Candida albicans in 10^7 cell/ml density until 10 cells/ml were suspended in poly-L-Lysine solution (5 μg/ml in PBS) and 10 μl were loaded in nitrocellulose membranes. Then, the same steps for ELISA were followed, however, 25 μg/ml concentration of AcM anti-chitooligomers. Membrane was cut and deposited in 96-well plates, to which 50 μl TMB was added and incubated for 30 minutes at 37° C. Volume was removed and transferred to a new plate, to which stop reaction was added with HCl 1 N and read with spectrophotometer at 450 nm.\n(§2) The principle used in this trial was the same of ELISA and was based on the load presented by fungi. As nitrocellulose membrane has negative load, PL was used to check positive load to fungus, and consequently have bond to membrane.\n(§3) As provided in FIG. 11, it was initially diluted in 5 μg/ml of PL at 10^7 cell/ml concentration and diluted in base 10. In this trial, it was evidenced that AcM HC6/DD11 was capable to bond to C. albicans up to 10^4 cell/ml order, which counters C. neoformans, that was identified to 10^6 cell/ml order. 3 independent experiments were performed to each trial. Example 16.7—Immunofluorescence"}, "C. albicans [2]": {"tested_on": "C. albicans", "assay": "Indirect ELISA against intact cells using poly-L-Lysine (PL)", "format": "binding, Candida albicans", "settings": "10^4 and 10^5 cells/ml", "experimental": "For this test, C. neoformans (H99), Candida albicans, Giardia lamblia, human lung line cell A549 (ATCC), Escherichia coli and Staphylococcus aureus. Cells were washed in PBS three times and suspended at 10^7 cell/ml density in poly-L-Lysine (5 μg/ml in PBS) for adherence at night at 4° C. The next day, plates were blocked with PBS/BSA 5% and incubated for 1 hour at 37° C., then they are incubated for 1 hour at 37° C. with anti-chitooligomer AcM at 50 μg/ml concentration and diluted at 5 μg/ml. Then, washing with PBS/Tween 0.05% was performed for 3 times and anti-IgM murine peroxidase was added diluted 1:5000 and incubated for 2 hours at 37° C. Plates were washed again and TMB was added and incubated for 30 minutes at 37° C.\nReaction was stopped with HCl 1 N and reading with spectrophotometer at 450 nm. After this trial, seriated dilutions were performed at density of cells 10^7 until 10 cells/ml to fungi and 10^7 until 10^4 cells/ml to other cellular types and tested of AcM anti-chitooligomer at 25 μg/ml concentration, followed by the same procedures abovementioned. […]\nIn this trial, 10^7 cell/ml of C. albicans were used to perform an absorbance curve, in which it was observed that there was a 25 μg/ml concentration reliable signal of both AcM, as above such value the curve starts to enter in plateau, as provided in FIG. 9. […]"}, "[3]": {"tested_on": "acapsular mutant of C. neoformans Cap67", "assay": "Biofilm development, XTT reduction trial", "format": "cell-based, Cryptococcus neoformans", "settings": "AcM 25 μg/ml, 48 hours at 37° C., vs fungus without treatment, p<0.05", "experimental": "(§4) C. neoformans (H99 and Cap67) and Candida albicans were cultivated in Sabouraud media for 24 hours at 30° C. Cellular suspensions were centrifuged for 5 minutes at 3000 g, washed 3 times in PBC and suspended in minimum media (20 mg/ml thiamin, 30 mm glucose, 26 mM glycine, 20 mM MgSO4, and 58.8 mM KH2PO4). Then, they were added to 96-well plates (100 μl/well—1×10^6 células/ml) and cultivated for 48 hours at 37° C. at presence of AcM (HC6/DD11 and AF1/CC5) and AcM anti-GXM 18B7 (only to H99) at 25 μg/ml concentration, keeping under agitation for 30 minutes, for AcM total homogenization with fungi. As control, drug AmB was used at 1 μg/ml concentration.\n(§5) Two analysis systems were performed: in the first, cells were washed, so that non-adhering cells were removed and only cells bonded to biofilm under development remained; in the second system, cells were not washed and all cells adhered or not to substrate were quantified.\n(§6) Viable cell metabolic activity in both trials was assessed by the method based on decrease of XTT (2-methoxy-4-nitro-5-sulfophenyl)-5-[(phenylamino) carbonyl]-2H-tetrazolium hydroxide) in spectrophotometer at 492 nm of wavelength.\n(§7) AcMs were tested (25 μg/ml) against three fungus species (C. albicans, C. neoformans—H99—and acapsular mutant of C. neoformans—Cap67), with control by AcM anti-GXM 18B7 (25 μg/ml) only to H99. In the first assay (FIGS. 14A and B), cellular suspensions were washed to remove non-adhering cells to substrate. […] In second assay (FIGS. 14C and D), cellular suspensions were not washed, and again AcM inhibited biofilm development (p<0.05) compared to cell not treated with antibodies. In both assays, cell growth was observed."}, "C. albicans [4]": {"tested_on": "C. albicans", "assay": "Biofilm development, XTT reduction trial", "format": "cell-based, Candida albicans", "settings": "AcM 25 μg/ml, 48 hours at 37° C., vs fungus without treatment, p<0.05", "experimental": "as §4, §5, §6, §7"}, "C. neoformans (H99)": {"tested_on": "C. neoformans (H99)", "assay": "Dot Blot against intact cells using PL", "format": "binding, Cryptococcus neoformans", "settings": "AcM 25 μg/ml; cells in 5 μg/ml PL diluted in base 10 from 10^7 cell/ml; 3 independent experiments", "experimental": "as §1, §2, §3"}, "C. neoformans strain H99": {"tested_on": "C. neoformans strain H99", "assay": "Survival trial, lethal i.p. challenge", "format": "in vivo, Balb/C line mice", "settings": "synergic group: AcM 85 μg/animal with AmB 0.25 mg/kg", "experimental": "Balb/C line mice (n=7) were lethally challenged via i.p. with 10^5 cells in PBS of C. neoformans (H99) and treated 2 hours later with 100 μl of AmB (2.5 mg/kg and 0.25 mg/kg), 100 μl of AcM (85 μg/ml) and 100 μl of AcM and AmB combined solution (0.25 mg/kg). Control animals were challenged only by C. neoformans (H99) or only with 100 μl of a solution of PBS, AmB (2.5 mg/kg) or AcM (85 μg/ml) without fungus (adapted from Liedke et al.). Survival rate was achieved and analysis was extended up to 90 days after infection, presenting statistical value with p<0.005.\nMice were lethally challenged with inoculant i.p. of 1×10^5 cells of yeast C. neoformans strain H99. After 2 hours, they were treated with PBS (negative control), 85 μg/animal of AcM (HC6/DD11) in isolate form, 0.25 or 2.5 mg/kg of AmB in isolate form, and in synergic form, AcM keeping test concentrations. Treatments were repeated for another two times, with 10-day interval."}}}
{"molecule": "HC6/DD11: murine IgM monoclonal antibody against chitooligomers (chitotriose); VH SEQ ID NO: 15, VL SEQ ID NO: 16 (antibody, listed as Mus musculus, V domains shown) VH: STGQVKLEESGGGLVQPGGSRKLSCAASGFTFSDYGMAWVRQAPGKGPEWVAFISNLAYSIYYADTVTGRFTISRENAKNTLYLEMSSLRSEDTAMYYCARDYYGSSYWYFDVWGAGTTVTAPC VL: ATNSCISRGEVTITCSASSSVSYMHWFQQKPGTSPKLWIYSTSNLASGVPARFSGSGSGTSYSLTISRMEAEDAATYYCQQRSSYPLTFGAGTKLELKRADAAPTVSLET", "values": [{"measurement": "cell density down to which AcM was capable to bond (Dot Blot)", "setting": "C. albicans [1]", "value": "10^4 cell/ml"}, {"measurement": "ELISA signal in cell saturation curve", "setting": "C. albicans [2]", "value": "slightly more sensitive"}, {"measurement": "biofilm development (XTT reduction)", "setting": "[3]; non-washed cells", "value": "reduced biofilm development significantly"}, {"measurement": "biofilm development (XTT reduction)", "setting": "[3]; washed cells", "value": "reduced biofilm development significantly"}, {"measurement": "biofilm development (XTT reduction)", "setting": "C. albicans [4]; non-washed cells", "value": "reduced biofilm development significantly"}, {"measurement": "biofilm development (XTT reduction)", "setting": "C. albicans [4]; washed cells", "value": "reduced biofilm development significantly"}, {"measurement": "cell density down to which fungus was identified (Dot Blot)", "setting": "C. neoformans (H99)", "value": "10^6 cell/ml"}, {"measurement": "death of infected animals", "setting": "C. neoformans strain H99; followed up to 90 days", "value": "did not die"}, {"measurement": "survival", "setting": "C. neoformans strain H99; up to 90 days, n=7", "value": 100, "unit": "%"}]}
